Source: patent publication US20030165991A1

How the values were obtained:
[1] = biological target: Monoclonal antibody mAB 6F5 (anti-deoxynivalenol monoclonal antibody from hybridoma cell line 6F5); experiment: CD-ELISA, immobilized mAB 6F5; C430 competing with DON-HRP or C430-HRP conjugate
[2] = biological target: antiserum from C430-BSA-immunized mice; experiment: CI-ELISA, immobilized phage-displayed DONPEP.2, antiserum after the fourth injection, free C430 as competitor

With H-SWGPFPFGGGSC-OH [synthetic peptide C430 (NH2-…-COOH)] the IC50 [1] was 640 to 800 nM and the IC50 [2] was 390 nM.
